Test results: the supplement of paper PMC7125110
± gives the standard error. Variants at the floor of the assay were thinned out.

B1: glmS ribozyme (parent)
chain: AUAAAAGCGCCAGAACUACAGAAAUGUAGUUGACGAGGAGGAGGUUUAUCGAAUUUUCGGCGGAUGCCUCCAAA

How the values were obtained:
Conditions in all cases: with glucosamine-6-phosphate
glucosamine-6-phosphate [1] = variants of: B1; experiment: self-cleavage kobs at 40 uM GlcN6P; higher = faster cleavage; RNA array
How it was run: (§1)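 kobs was derived by fitting per-tile medians to one- or two-exponential decays after normalising signals to baseline and to non-cleaving reference variants. Those signals came from barcoded ribozyme variants transcribed in situ by E. coli RNA polymerase on sequenced MiSeq chips, followed through a hybridised Cy3 probe at 37 °C and imaged over ~14 h. Glucosamine-6-phosphate (40 μM to 10 mM) in HEPES/KCl/Mg(OAc)2 buffer was flowed in. Weighted Michaelis–Menten fits across concentrations then gave kcat and KM.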

glucosamine-6-phosphate [2] = variants of: B1; experiment: self-cleavage kobs at 160 uM GlcN6P; higher = faster cleavage; RNA array
How it was run: as §1

glucosamine-6-phosphate [3] = variants of: B1; experiment: self-cleavage kobs at 640 uM GlcN6P; higher = faster cleavage; RNA array
How it was run: as §1

glucosamine-6-phosphate [4] = variants of: B1; experiment: self-cleavage kobs at 10000 uM GlcN6P; higher = faster cleavage; RNA array
How it was run: as §1

glucosamine-6-phosphate [5] = variants of: B1; experiment: self-cleavage kobs at 2500 uM GlcN6P; higher = faster cleavage; RNA array
How it was run: as §1

Variant | self-cleavage kobs at 40 uM GlcN6P (glucosamine-6-phosphate [1]) [s⁻¹] | self-cleavage kobs at 160 uM GlcN6P (glucosamine-6-phosphate [2]) [s⁻¹] | self-cleavage kobs at 640 uM GlcN6P (glucosamine-6-phosphate [3]) [s⁻¹] | self-cleavage kobs at 10000 uM GlcN6P (glucosamine-6-phosphate [4]) [s⁻¹] | self-cleavage kobs at 2500 uM GlcN6P (glucosamine-6-phosphate [5]) [s⁻¹]
G7U U56A | < 1e-05 | < 1e-05 | < 1e-05 | < 1e-05 | –
C11G A53U | < 1e-05 | – | – | – | –
A15C A39G G40A G59C | < 1e-05 | – | – | – | –
G41C G43A U46G C68A C70U | < 1e-05 | – | – | – | –
C71U | 0.00128 ± 3.7e-05 | 0.00366 ± 0.00023 | 0.00716 ± 0.00034 | 0.0553 ± 0.0027 | 0.0256 ± 0.0014
A14U G35U G44C | < 1e-05 | < 1e-05 | < 1e-05 | < 1e-05 | < 1e-05
A42G U55G G62C | < 1e-05 | < 1e-05 | – | < 1e-05 | < 1e-05
C8G G37C C67G | < 1e-05 | – | – | < 1e-05 | < 1e-05
C34A A48C | < 1e-05 | – | – | < 1e-05 | < 1e-05
A6G C58A | < 1e-05 | < 1e-05 | < 1e-05 | – | < 1e-05
G9A G13U C50G U57A | 0.000665 ± 0.00023 | – | – | 9.79e-05 ± 2e-05 | –
G9C U45C | < 1e-05 | – | – | – | < 1e-05
C11U G13A | < 1e-05 | – | – | 6.97e-05 ± 1.7e-05 | 3.03e-05 ± 1.4e-05
G7U A52U | < 1e-05 | – | < 1e-05 | < 1e-05 | < 1e-05
G35U U54A | < 1e-05 | < 1e-05 | < 1e-05 | – | < 1e-05
G7U G35U | < 1e-05 | < 1e-05 | – | < 1e-05 | < 1e-05
C34A U56C G63A | < 1e-05 | – | – | < 1e-05 | –
G9A G38A | < 1e-05 | – | – | < 1e-05 | –
G44A G60A | < 1e-05 | < 1e-05 | < 1e-05 | < 1e-05 | < 1e-05
G44A U47C | < 1e-05 | < 1e-05 | < 1e-05 | < 1e-05 | < 1e-05
G7A G35C G59A C67G | < 1e-05 | < 1e-05 | < 1e-05 | – | < 1e-05
G32A A48C | < 1e-05 | < 1e-05 | – | – | –
A42U U54C U55C | < 1e-05 | – | – | 8.78e-05 ± 1.3e-05 | 5.79e-05 ± 1.6e-05
A12G G62A | < 1e-05 | – | < 1e-05 | < 1e-05 | –

Variant | self-cleavage kobs at 40 uM GlcN6P (glucosamine-6-phosphate [1]) [s⁻¹] | self-cleavage kobs at 160 uM GlcN6P (glucosamine-6-phosphate [2]) [s⁻¹] | self-cleavage kobs at 640 uM GlcN6P (glucosamine-6-phosphate [3]) [s⁻¹] | self-cleavage kobs at 10000 uM GlcN6P (glucosamine-6-phosphate [4]) [s⁻¹] | self-cleavage kobs at 2500 uM GlcN6P (glucosamine-6-phosphate [5]) [s⁻¹]
C8G G43U | < 1e-05 | – | < 1e-05 | – | < 1e-05
A12C A33C A39C | < 1e-05 | – | – | – | –
A42C G44A | < 1e-05 | < 1e-05 | < 1e-05 | < 1e-05 | –
A6G C8G A39C U55C C70A | < 1e-05 | – | – | < 1e-05 | –
C11U G29U C50U C71G | 4.57e-05 ± 2.1e-05 | – | – | – | –
G32C A33U | < 1e-05 | < 1e-05 | < 1e-05 | – | < 1e-05
C34U G60U | < 1e-05 | < 1e-05 | < 1e-05 | < 1e-05 | < 1e-05
G60C U65G | < 1e-05 | < 1e-05 | < 1e-05 | < 1e-05 | –
C11G G41C C50U | < 1e-05 | – | – | – | –
U57A U65C | < 1e-05 | – | < 1e-05 | – | –
G13C G63U | < 1e-05 | – | – | – | < 1e-05
C11A U49G C67G | 4.47e-05 ± 1.8e-05 | – | – | – | –
G9A U55G | < 1e-05 | < 1e-05 | – | – | –
U2A A3U C50A | < 1e-05 | – | – | 3.38e-05 ± 1.2e-05 | –
A6U A12U G32U G60U | < 1e-05 | – | – | – | –
C16U U30A C58G A73U | < 1e-05 | – | – | – | –
C10U G13C A36C | < 1e-05 | – | – | – | –
G41U A64U | < 1e-05 | – | < 1e-05 | – | –
A53G U65C | 3.6e-05 ± 1.8e-05 | – | 0.000302 ± 7.9e-05 | 0.000644 ± 0.00014 | 0.000224 ± 9.5e-05
A15U G29C A39G | 6.29e-05 ± 1.7e-05 | – | – | 0.00376 ± 0.0005 | –
C16G U31A G35C G40A | < 1e-05 | – | – | < 1e-05 | < 1e-05
A6C G43C G63A C71A | < 1e-05 | – | – | < 1e-05 | –
C10A U46G U47G C50G C58G C68U | 0.000116 ± 2.2e-05 | – | – | 0.000242 ± 4.3e-05 | –
A14G A33G G59U | < 1e-05 | – | – | – | –

Variant | self-cleavage kobs at 40 uM GlcN6P (glucosamine-6-phosphate [1]) [s⁻¹] | self-cleavage kobs at 160 uM GlcN6P (glucosamine-6-phosphate [2]) [s⁻¹] | self-cleavage kobs at 640 uM GlcN6P (glucosamine-6-phosphate [3]) [s⁻¹] | self-cleavage kobs at 10000 uM GlcN6P (glucosamine-6-phosphate [4]) [s⁻¹] | self-cleavage kobs at 2500 uM GlcN6P (glucosamine-6-phosphate [5]) [s⁻¹]
C50A G51C | < 1e-05 | – | – | < 1e-05 | –
A15G A64U C68U | < 1e-05 | – | – | – | –
G32U A36C C68A | < 1e-05 | – | – | < 1e-05 | –
G44C A48C | < 1e-05 | < 1e-05 | – | < 1e-05 | < 1e-05
C68U C70A C71U | < 1e-05 | – | – | < 1e-05 | < 1e-05
C34U C58G C68U | 0.000265 ± 9.2e-05 | – | – | 0.000425 ± 0.00014 | –
U56G C71A | 8.72e-05 ± 1.6e-05 | 0.000152 ± 4.1e-05 | 0.000589 ± 0.00013 | 0.00215 ± 0.0004 | 0.000518 ± 0.00011
U56A U65G | 3.75e-05 ± 1.4e-05 | – | 0.000348 ± 0.00011 | 0.00196 ± 0.00027 | –
G7U U30G | < 1e-05 | < 1e-05 | – | < 1e-05 | –
C11G U46A C67G | < 1e-05 | – | – | < 1e-05 | –
A6G A33C | < 1e-05 | < 1e-05 | < 1e-05 | < 1e-05 | < 1e-05
C8A C11U A15U C50G U56A G63A | 5.94e-05 ± 2e-05 | – | – | 0.00011 ± 2.4e-05 | 0.000104 ± 5.1e-05
A15C G32C A64U C67A | < 1e-05 | – | – | – | –
A14U G38A U45G G63C | < 1e-05 | – | – | – | –
G32C U47G C67G | 0.000392 ± 0.00015 | – | – | 6.01e-05 ± 2.5e-05 | –
U30C G37U | < 1e-05 | – | – | – | –
U30A G37C U65C | < 1e-05 | – | – | – | < 1e-05
A42G C61G | < 1e-05 | < 1e-05 | < 1e-05 | < 1e-05 | –
U46A U57G | < 1e-05 | < 1e-05 | – | – | –
A15G U45A | 0.00128 ± 0.00026 | 0.00318 ± 0.0012 | 0.025 ± 0.0066 | 0.098 ± 0.043 | 0.046 ± 0.019
A33U C67U C70G | < 1e-05 | – | – | – | –
G9A G43U | < 1e-05 | < 1e-05 | < 1e-05 | – | < 1e-05
G13U G38A A39U | < 1e-05 | – | – | – | –
G43U C58G | < 1e-05 | < 1e-05 | < 1e-05 | < 1e-05 | < 1e-05

Variant | self-cleavage kobs at 40 uM GlcN6P (glucosamine-6-phosphate [1]) [s⁻¹] | self-cleavage kobs at 160 uM GlcN6P (glucosamine-6-phosphate [2]) [s⁻¹] | self-cleavage kobs at 640 uM GlcN6P (glucosamine-6-phosphate [3]) [s⁻¹] | self-cleavage kobs at 10000 uM GlcN6P (glucosamine-6-phosphate [4]) [s⁻¹] | self-cleavage kobs at 2500 uM GlcN6P (glucosamine-6-phosphate [5]) [s⁻¹]
U30G A36U C50G C67U | 0.000201 ± 3.9e-05 | – | – | 0.00055 ± 0.00011 | –
A36U U49C | < 1e-05 | < 1e-05 | < 1e-05 | < 1e-05 | –
G38C U65C | < 1e-05 | < 1e-05 | < 1e-05 | < 1e-05 | –
C10G C16U U49C | < 1e-05 | – | < 1e-05 | – | –
G9A C50G U65G G66C C70G | 5.55e-05 ± 2.4e-05 | – | – | 4.91e-05 ± 1.6e-05 | –
G29A G38A U46G C61U | < 1e-05 | – | – | < 1e-05 | –
A39C G41A | < 1e-05 | < 1e-05 | < 1e-05 | < 1e-05 | –
G41C C61G | < 1e-05 | < 1e-05 | < 1e-05 | – | < 1e-05
G21U G40C | 0.000253 ± 6.1e-05 | – | – | 0.00248 ± 0.00053 | –
U55C G63U | < 1e-05 | – | – | – | –
G7A G41A | < 1e-05 | < 1e-05 | < 1e-05 | < 1e-05 | < 1e-05
A14C C34A C67U | < 1e-05 | – | – | < 1e-05 | < 1e-05
G7C U47G U56G G59U G60C | < 1e-05 | – | – | – | –
U54A C70G | 6.49e-05 ± 8.1e-06 | 6.78e-05 ± 1e-05 | 0.00033 ± 5.7e-05 | 0.000131 ± 1.5e-05 | 0.000176 ± 2.2e-05
G44A G63C | < 1e-05 | – | < 1e-05 | < 1e-05 | < 1e-05
G44C U45G C58G | < 1e-05 | – | – | – | –
A42G G66A | 0.000416 ± 6.5e-05 | 0.000862 ± 0.0002 | 0.00611 ± 0.00079 | 0.0267 ± 0.0068 | 0.00984 ± 0.0018
A6U A48G G51C G59C | < 1e-05 | – | – | < 1e-05 | –
A12U U57C G59C | < 1e-05 | – | < 1e-05 | – | < 1e-05
C10G U31C | < 1e-05 | < 1e-05 | – | < 1e-05 | –
G38U U54G | < 1e-05 | – | – | – | –
G41A G43U A53G C71G | < 1e-05 | – | – | – | < 1e-05
A6U A33C | < 1e-05 | < 1e-05 | < 1e-05 | – | < 1e-05
